# Tests used:
# murine PD1 antigen = target: T1, murine PD1 antigen (murine, UniProt Q02242 25-167, limits assumed); experiment: ELISA, coated murine PD1
# T1 sequence (looked up): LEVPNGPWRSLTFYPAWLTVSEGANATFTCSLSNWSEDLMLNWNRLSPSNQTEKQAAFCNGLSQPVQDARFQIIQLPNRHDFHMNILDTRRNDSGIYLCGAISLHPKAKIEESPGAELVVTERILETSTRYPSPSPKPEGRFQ
# [1] = target: T2, cynomolgus monkey PD1 antigen (cynomolgus monkey, UniProt B0LAJ3 25-170); experiment: ELISA, coated cynomolgus PD1
# T2 construct: also called cynomolgus PD1
# T2 sequence (B0LAJ3 entry or part of it limits assumed, form in doubt): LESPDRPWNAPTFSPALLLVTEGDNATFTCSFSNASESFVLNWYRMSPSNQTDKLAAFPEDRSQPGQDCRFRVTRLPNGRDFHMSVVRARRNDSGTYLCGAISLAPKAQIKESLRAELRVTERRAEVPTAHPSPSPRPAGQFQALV
binder,measurement,setting,value
"IgG1_WT nivolumab (antibody, V domains shown) VH: QVQLVESGGGVVQPGRSLRLDCKASGITFSNSGMHWVRQAPGKGLEWVAVIWYDGSKRYYADSVKGRFTISRDNSKNTLFLQMNSLRAEDTAVYYCATNDDYWGQGTLVTVSS VL: EIVLTQSPATLSLSPGERATLSCRASQSVSSYLAWYQQKPGQAPRLLIYDASNRATGIPARFSGSGSGTDFTLTISSLEPEDFAVYYCQQSSNWPRTFGQGTKVEIK",OD 450 nm at 0.2 µg/ml,murine PD1 antigen,0.305 OD 450 nm
same,OD 450 nm at 0.2 µg/ml,[1],2.39 OD 450 nm

# From patent US20190218292A1 (LABORATOIRE FRAN AIS DU FRACTIONNEMENT ET DES BIOT …, published 2019)
